PMC9420396

T1: DDX21 helicase core WT (human, UniProt Q9NR30 188-563)
T1 sequence: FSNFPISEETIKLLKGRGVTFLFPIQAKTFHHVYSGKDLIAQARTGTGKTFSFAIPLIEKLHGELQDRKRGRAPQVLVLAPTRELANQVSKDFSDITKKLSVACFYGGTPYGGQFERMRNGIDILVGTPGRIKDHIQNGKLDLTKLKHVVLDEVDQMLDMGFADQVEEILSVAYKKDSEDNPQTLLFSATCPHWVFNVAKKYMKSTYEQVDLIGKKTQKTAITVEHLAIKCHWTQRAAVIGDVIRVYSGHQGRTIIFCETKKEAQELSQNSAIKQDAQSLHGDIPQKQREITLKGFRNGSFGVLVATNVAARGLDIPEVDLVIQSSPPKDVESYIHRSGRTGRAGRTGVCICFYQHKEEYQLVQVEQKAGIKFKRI


How the values were obtained:
[1] = biological target: T1, DDX21 helicase core WT; experiment: SEC co-elution
[2] = biological target: T1, DDX21 helicase core WT; experiment: MST

Binder | binding result [1] | binding result [2]
UUUUUUUUUUUUUUU (ssRNA) [U15 RNA (SEC)] | binds | 
UUUUUUUUUUUUUUU (ssRNA) [U15 RNA, 5'-FAM] |  | binds
